Values belong to the substance of their own block, whether it stands above or below them.
Key:
Centromere B [1] = target: T1, Centromere B (UniProt P07199); assay: AtheNA, Ab 25 ug/ml
T1 sequence (looked up): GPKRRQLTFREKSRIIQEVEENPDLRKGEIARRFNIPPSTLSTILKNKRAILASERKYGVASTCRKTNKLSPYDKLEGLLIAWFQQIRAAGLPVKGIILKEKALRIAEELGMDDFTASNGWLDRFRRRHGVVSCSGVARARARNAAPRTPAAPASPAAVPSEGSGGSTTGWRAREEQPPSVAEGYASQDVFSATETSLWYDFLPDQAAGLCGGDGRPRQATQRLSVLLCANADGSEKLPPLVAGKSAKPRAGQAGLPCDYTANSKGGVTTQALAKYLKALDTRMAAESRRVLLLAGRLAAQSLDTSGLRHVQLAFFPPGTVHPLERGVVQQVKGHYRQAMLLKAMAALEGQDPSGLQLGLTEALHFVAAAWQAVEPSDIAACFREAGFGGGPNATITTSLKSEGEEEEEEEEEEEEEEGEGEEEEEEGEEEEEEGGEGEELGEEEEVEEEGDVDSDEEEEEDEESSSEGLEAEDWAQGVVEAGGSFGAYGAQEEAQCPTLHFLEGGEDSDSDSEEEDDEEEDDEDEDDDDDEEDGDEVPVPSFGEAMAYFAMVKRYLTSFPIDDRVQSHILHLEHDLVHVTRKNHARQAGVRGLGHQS

Histones [2] = assay: AtheNA, Ab 25 ug/ml
Jo-1 [3] = target: T2, Jo-1 (UniProt P12081); assay: AtheNA, Ab 25 ug/ml
T2 sequence (looked up): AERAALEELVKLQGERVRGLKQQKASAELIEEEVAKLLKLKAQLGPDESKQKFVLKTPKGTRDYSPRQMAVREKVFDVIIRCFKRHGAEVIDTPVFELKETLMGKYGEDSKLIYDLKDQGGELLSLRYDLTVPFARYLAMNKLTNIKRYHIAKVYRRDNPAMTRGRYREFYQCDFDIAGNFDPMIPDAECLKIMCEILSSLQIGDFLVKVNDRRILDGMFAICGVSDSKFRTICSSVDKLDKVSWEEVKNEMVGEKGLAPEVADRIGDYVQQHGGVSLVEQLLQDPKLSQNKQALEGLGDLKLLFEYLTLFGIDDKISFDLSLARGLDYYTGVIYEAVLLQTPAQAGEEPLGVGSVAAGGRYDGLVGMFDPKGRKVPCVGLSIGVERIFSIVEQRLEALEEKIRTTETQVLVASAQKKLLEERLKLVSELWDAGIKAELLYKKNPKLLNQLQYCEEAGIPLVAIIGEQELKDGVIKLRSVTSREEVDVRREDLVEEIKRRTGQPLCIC

RNP (ribonucleoprotein) [4] = assay: AtheNA, Ab 25 ug/ml
SSA [5] = assay: AtheNA, Ab 25 ug/ml
SSB [6] = target: SSB (UniProt P05455); assay: AtheNA, Ab 25 ug/ml
Chain of SSB (P05455 whole entry): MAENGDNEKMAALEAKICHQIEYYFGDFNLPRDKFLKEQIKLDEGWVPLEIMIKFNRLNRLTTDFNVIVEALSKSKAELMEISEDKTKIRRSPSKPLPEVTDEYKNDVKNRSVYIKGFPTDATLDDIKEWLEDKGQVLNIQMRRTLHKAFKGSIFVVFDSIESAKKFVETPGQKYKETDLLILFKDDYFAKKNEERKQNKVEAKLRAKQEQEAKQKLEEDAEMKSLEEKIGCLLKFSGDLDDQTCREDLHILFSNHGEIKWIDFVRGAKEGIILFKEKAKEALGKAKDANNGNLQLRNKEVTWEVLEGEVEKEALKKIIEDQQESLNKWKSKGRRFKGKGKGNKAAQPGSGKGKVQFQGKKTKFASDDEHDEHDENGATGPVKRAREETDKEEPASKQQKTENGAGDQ

Scl-70 [7] = target: Scl-70 (UniProt P11387); assay: AtheNA, Ab 25 ug/ml
Chain of Scl-70 (P11387 2-765 limits assumed): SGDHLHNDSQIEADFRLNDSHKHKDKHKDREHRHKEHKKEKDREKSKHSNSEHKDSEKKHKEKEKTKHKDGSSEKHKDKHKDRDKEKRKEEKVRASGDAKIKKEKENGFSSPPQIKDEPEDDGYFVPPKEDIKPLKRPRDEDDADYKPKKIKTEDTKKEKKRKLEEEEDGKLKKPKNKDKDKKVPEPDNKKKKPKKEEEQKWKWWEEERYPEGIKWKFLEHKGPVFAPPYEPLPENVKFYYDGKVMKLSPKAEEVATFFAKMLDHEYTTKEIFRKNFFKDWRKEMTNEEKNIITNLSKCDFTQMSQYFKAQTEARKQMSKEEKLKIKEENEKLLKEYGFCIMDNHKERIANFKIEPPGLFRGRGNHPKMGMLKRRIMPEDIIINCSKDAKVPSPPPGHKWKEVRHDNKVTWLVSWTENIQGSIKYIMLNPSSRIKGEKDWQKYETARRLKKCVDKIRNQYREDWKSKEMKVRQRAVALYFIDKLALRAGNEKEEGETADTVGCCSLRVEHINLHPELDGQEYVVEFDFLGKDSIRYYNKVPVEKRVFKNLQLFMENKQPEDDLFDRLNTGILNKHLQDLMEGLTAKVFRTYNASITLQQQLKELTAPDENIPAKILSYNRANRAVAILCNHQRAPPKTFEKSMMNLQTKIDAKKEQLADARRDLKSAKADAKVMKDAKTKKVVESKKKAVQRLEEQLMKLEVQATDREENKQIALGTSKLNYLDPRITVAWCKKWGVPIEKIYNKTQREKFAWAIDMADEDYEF

Sm (Smith antigen) [8] = assay: AtheNA, Ab 25 ug/ml
Centromere B [9] = target: T1, Centromere B; assay: AtheNA, Ab 12.5 ug/ml
Histones [10] = assay: AtheNA, Ab 12.5 ug/ml
Jo-1 [11] = target: T2, Jo-1; assay: AtheNA, Ab 12.5 ug/ml
RNP (ribonucleoprotein) [12] = assay: AtheNA, Ab 12.5 ug/ml
SSA [13] = assay: AtheNA, Ab 12.5 ug/ml
SSB [14] = target: SSB (UniProt P05455); assay: AtheNA, Ab 12.5 ug/ml
Scl-70 [15] = target: Scl-70 (UniProt P11387); assay: AtheNA, Ab 12.5 ug/ml
Sm (Smith antigen) [16] = assay: AtheNA, Ab 12.5 ug/ml
Centromere B [17] = target: T1, Centromere B; assay: AtheNA, Ab 6.25 ug/ml
Histones [18] = assay: AtheNA, Ab 6.25 ug/ml
Jo-1 [19] = target: T2, Jo-1; assay: AtheNA, Ab 6.25 ug/ml
RNP (ribonucleoprotein) [20] = assay: AtheNA, Ab 6.25 ug/ml
SSA [21] = assay: AtheNA, Ab 6.25 ug/ml
SSB [22] = target: SSB (UniProt P05455); assay: AtheNA, Ab 6.25 ug/ml
Scl-70 [23] = target: Scl-70 (UniProt P11387); assay: AtheNA, Ab 6.25 ug/ml
Sm (Smith antigen) [24] = assay: AtheNA, Ab 6.25 ug/ml
Centromere B [25] = target: T1, Centromere B; assay: AtheNA, Ab 25 ug/ml; remark: listed apart in the source
Histones [26] = assay: AtheNA, Ab 25 ug/ml; remark: listed apart in the source
Jo-1 [27] = target: T2, Jo-1; assay: AtheNA, Ab 25 ug/ml; remark: listed apart in the source
RNP (ribonucleoprotein) [28] = assay: AtheNA, Ab 25 ug/ml; remark: listed apart in the source
SSA [29] = assay: AtheNA, Ab 25 ug/ml; remark: listed apart in the source
SSB [30] = target: SSB (UniProt P05455); assay: AtheNA, Ab 25 ug/ml; remark: listed apart in the source
Scl-70 [31] = target: Scl-70 (UniProt P11387); assay: AtheNA, Ab 25 ug/ml; remark: listed apart in the source
Sm (Smith antigen) [32] = assay: AtheNA, Ab 25 ug/ml; remark: listed apart in the source
Centromere B [33] = target: T1, Centromere B; assay: AtheNA, Ab 50 ug/ml
Histones [34] = assay: AtheNA, Ab 50 ug/ml
Jo-1 [35] = target: T2, Jo-1; assay: AtheNA, Ab 50 ug/ml
RNP (ribonucleoprotein) [36] = assay: AtheNA, Ab 50 ug/ml
SSA [37] = assay: AtheNA, Ab 50 ug/ml
SSB [38] = target: SSB (UniProt P05455); assay: AtheNA, Ab 50 ug/ml
Scl-70 [39] = target: Scl-70 (UniProt P11387); assay: AtheNA, Ab 50 ug/ml
Sm (Smith antigen) [40] = assay: AtheNA, Ab 50 ug/ml
Jo-1 [41] = target: T2, Jo-1; assay: AtheNA, Ab 50 ug/ml; remark: listed apart in the source
SSB [42] = target: SSB (UniProt P05455); assay: AtheNA, Ab 50 ug/ml; remark: listed apart in the source

- Athena reading (relative luminescence units) (Centromere B [1]): 3
- Athena reading (relative luminescence units) (Histones [2]): 3
- Athena reading (relative luminescence units) (Jo-1 [3]): 5
- Athena reading (relative luminescence units) (RNP (ribonucleoprotein) [4]): 4
- Athena reading (relative luminescence units) (SSA [5]): 9
- Athena reading (relative luminescence units) (SSB [6]): 3
- Athena reading (relative luminescence units) (Scl-70 [7]): 3
- Athena reading (relative luminescence units) (Sm (Smith antigen) [8]): 6
- Athena reading (relative luminescence units) (Centromere B [9]): 3
- Athena reading (relative luminescence units) (Histones [10]): 4
- Athena reading (relative luminescence units) (Jo-1 [11]): 5
- Athena reading (relative luminescence units) (RNP (ribonucleoprotein) [12]): 3
- Athena reading (relative luminescence units) (SSA [13]): 9
- Athena reading (relative luminescence units) (SSB [14]): 4
- Athena reading (relative luminescence units) (Scl-70 [15]): 3
- Athena reading (relative luminescence units) (Sm (Smith antigen) [16]): 6
- Athena reading (relative luminescence units) (Centromere B [17]): 2
- Athena reading (relative luminescence units) (Histones [18]): 2
- Athena reading (relative luminescence units) (Jo-1 [19]): 3
- Athena reading (relative luminescence units) (RNP (ribonucleoprotein) [20]): 2
- Athena reading (relative luminescence units) (SSA [21]): 10
- Athena reading (relative luminescence units) (SSB [22]): 5
- Athena reading (relative luminescence units) (Scl-70 [23]): 3
- Athena reading (relative luminescence units) (Sm (Smith antigen) [24]): 5
Substance: CH235UA/293i (antibody)

- Athena reading (Centromere B [25]): 5
- Athena reading (Histones [26]): 4
- Athena reading (Jo-1 [27]): 3
- Athena reading (RNP (ribonucleoprotein) [28]): 2
- Athena reading (SSA [29]): 3
- Athena reading (SSB [30]): 6
- Athena reading (Scl-70 [31]): 1
- Athena reading (Sm (Smith antigen) [32]): 5
- Athena reading (Centromere B [33]): 10
- Athena reading (Histones [34]): 9
- Athena reading (Jo-1 [35]): 5
- Athena reading (RNP (ribonucleoprotein) [36]): 2
- Athena reading (SSA [37]): 5
- Athena reading (SSB [38]): 6
- Athena reading (Scl-70 [39]): 4
- Athena reading (Sm (Smith antigen) [40]): 5
- Athena reading (Centromere B [9]): 3
- Athena reading (Histones [10]): 4
- Athena reading (Jo-1 [11]): 6
- Athena reading (RNP (ribonucleoprotein) [12]): 3
- Athena reading (SSA [13]): 3
- Athena reading (SSB [14]): 6
- Athena reading (Scl-70 [15]): 2
- Athena reading (Sm (Smith antigen) [16]): 5
- Athena reading (Centromere B [17]): 2
- Athena reading (Histones [18]): 2
- Athena reading (Jo-1 [19]): 5
- Athena reading (RNP (ribonucleoprotein) [20]): 2
- Athena reading (SSA [21]): 5
- Athena reading (SSB [22]): 1
- Athena reading (Scl-70 [23]): 2
- Athena reading (Sm (Smith antigen) [24]): 3
Substance: DH270IA1 (antibody)

- Athena reading (relative luminescence units) (Centromere B [25]): 4
- Athena reading (relative luminescence units) (Histones [26]): 5
- Athena reading (relative luminescence units) (Jo-1 [27]): 2
- Athena reading (relative luminescence units) (RNP (ribonucleoprotein) [28]): 4
- Athena reading (relative luminescence units) (SSA [29]): 3
- Athena reading (relative luminescence units) (SSB [30]): 7
- Athena reading (relative luminescence units) (Scl-70 [31]): 2
- Athena reading (relative luminescence units) (Sm (Smith antigen) [32]): 3
- Athena reading (relative luminescence units) (Centromere B [1]): 2
- Athena reading (relative luminescence units) (Histones [2]): 2
- Athena reading (relative luminescence units) (Jo-1 [3]): 4
- Athena reading (relative luminescence units) (RNP (ribonucleoprotein) [4]): 0
- Athena reading (relative luminescence units) (SSA [5]): 11
- Athena reading (relative luminescence units) (SSB [6]): 4
- Athena reading (relative luminescence units) (Sm (Smith antigen) [8]): 4
- Athena reading (relative luminescence units) (Centromere B [9]): 2
- Athena reading (relative luminescence units) (Histones [10]): 3
- Athena reading (relative luminescence units) (Jo-1 [11]): 6
- Athena reading (relative luminescence units) (RNP (ribonucleoprotein) [12]): 3
- Athena reading (relative luminescence units) (SSA [13]): 2
- Athena reading (relative luminescence units) (SSB [14]): 5
- Athena reading (relative luminescence units) (Scl-70 [15]): 3
- Athena reading (relative luminescence units) (Sm (Smith antigen) [16]): 7
- Athena reading (relative luminescence units) (Centromere B [17]): 2
- Athena reading (relative luminescence units) (Histones [18]): 3
- Athena reading (relative luminescence units) (Jo-1 [19]): 1
- Athena reading (relative luminescence units) (RNP (ribonucleoprotein) [20]): 3
- Athena reading (relative luminescence units) (SSA [21]): 2
- Athena reading (relative luminescence units) (SSB [22]): 5
- Athena reading (relative luminescence units) (Scl-70 [23]): 2
- Athena reading (relative luminescence units) (Sm (Smith antigen) [24]): 2
Substance: synagis (antibody)

- Athena reading (relative luminescence units) (Centromere B [25]): 3
- Athena reading (relative luminescence units) (Histones [26]): 10
- Athena reading (relative luminescence units) (Jo-1 [27]): 160
- Athena reading (relative luminescence units) (RNP (ribonucleoprotein) [28]): 3
- Athena reading (relative luminescence units) (SSA [29]): 33
- Athena reading (relative luminescence units) (SSB [30]): 227
- Athena reading (relative luminescence units) (Scl-70 [31]): 1
- Athena reading (relative luminescence units) (Sm (Smith antigen) [32]): 2
- Athena reading (relative luminescence units) (Jo-1 [35]): 190
- Athena reading (relative luminescence units) (SSB [38]): 263
- Athena reading (relative luminescence units) (Centromere B [1]): 9
- Athena reading (relative luminescence units) (Histones [2]): 24
- Athena reading (relative luminescence units) (Jo-1 [3]): 206
- Athena reading (relative luminescence units) (RNP (ribonucleoprotein) [4]): 20
- Athena reading (relative luminescence units) (SSA [5]): 81
- Athena reading (relative luminescence units) (SSB [6]): 189
- Athena reading (relative luminescence units) (Scl-70 [7]): 4
- Athena reading (relative luminescence units) (Sm (Smith antigen) [8]): 46
- Athena reading (relative luminescence units) (Jo-1 [41]): 227
- Athena reading (relative luminescence units) (SSB [42]): 207
- Athena reading (relative luminescence units) (Centromere B [9]): 1
- Athena reading (relative luminescence units) (Histones [10]): 7
- Athena reading (relative luminescence units) (Jo-1 [11]): 131
- Athena reading (relative luminescence units) (RNP (ribonucleoprotein) [12]): 3
- Athena reading (relative luminescence units) (SSA [13]): 21
- Athena reading (relative luminescence units) (SSB [14]): 199
- Athena reading (relative luminescence units) (Scl-70 [15]): 0
- Athena reading (relative luminescence units) (Sm (Smith antigen) [16]): 3
- Athena reading (relative luminescence units) (Centromere B [17]): 2
- Athena reading (relative luminescence units) (Histones [18]): 6
- Athena reading (relative luminescence units) (Jo-1 [19]): 113
- Athena reading (relative luminescence units) (RNP (ribonucleoprotein) [20]): 3
- Athena reading (relative luminescence units) (SSA [21]): 17
- Athena reading (relative luminescence units) (SSB [22]): 178
- Athena reading (relative luminescence units) (Scl-70 [23]): 1
- Athena reading (relative luminescence units) (Sm (Smith antigen) [24]): 3
Substance: 4E10 IgG1 (antibody)

From patent US10344077
